From patent publication US6342348 (GENETECH, dated 2002)

Molecular target: T1, recombinant soluble rat GDNFRα (rat, UniProt Q62997 25-427, limits assumed)
T1 construct: also called rGDNFRα; GFR-alpha-1
T1 sequence (looked up): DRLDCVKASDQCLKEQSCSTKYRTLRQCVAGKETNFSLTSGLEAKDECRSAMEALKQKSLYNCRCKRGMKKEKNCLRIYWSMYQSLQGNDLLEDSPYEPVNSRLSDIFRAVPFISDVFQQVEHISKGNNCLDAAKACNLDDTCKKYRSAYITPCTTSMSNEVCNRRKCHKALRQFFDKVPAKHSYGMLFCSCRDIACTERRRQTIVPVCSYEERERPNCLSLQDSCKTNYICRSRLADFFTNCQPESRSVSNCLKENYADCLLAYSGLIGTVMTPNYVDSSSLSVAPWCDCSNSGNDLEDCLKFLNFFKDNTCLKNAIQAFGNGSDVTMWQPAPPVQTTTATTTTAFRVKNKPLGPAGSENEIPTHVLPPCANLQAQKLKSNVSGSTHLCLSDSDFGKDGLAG
Assay: equilibrium competition binding of ^125I-rGDNF to recombinant soluble rGDNFRα, Scatchard

Kd: 3 pM
B1: rat GDNF (ligand, UniProt Q07731 78-211, looked up)
chain: SPDKQAAALPRRERNRQAAAASPENSRGKGRRGQRGKNRGCVLTAIHLNVTDLGLGYETKEELIFRYCSGSCEAAETMYDKILKNLSRSRRLTSDKVGQACCRPVAFDDDLSFLDDSLVYHILRKHSAKRCGCI
modifications: ^125I label (iodinated either on tyrosine by the Bolton Hunter method or on lysine using lactoperoxidase)
notes: also called rGDNF; RGDNF
